Biological target: KRAS^G12V-reactive TCR (Pt. 4148)
Test: tetramer staining, flow cytometry on 41BB-enriched CD8 memory T cells of Pt. 4148

- percent of memory CD8 cells in the culture bound by tetramer: 15.9%
Substance: HLA-A*11:01-KRAS^G12V 9-mer tetramer (from UniProt P01116 8-16; P61769 21-119) (peptide-MHC)

— patent US20250136938A1
